Results as given in patent US20260167710A1.

Experiments:
[1] = target: human complement component C1q (human) (UniProt P02745); assay: SPR (ProteOn XPR36), antibody immobilised by amine coupling, C1q as analyte, equilibrium fit, 25 C
[2] = target: cynomolgus recombinant neonatal receptor (FcRn) (cynomolgus monkey) (UniProt Q8SPV9); assay: SPR (ProteOn XPR36), antibody captured by protein L, FcRn as analyte, equilibrium fit, pH 6.0, 25 C
[3] = target: human recombinant neonatal receptor (FcRn) (human) (UniProt P55899); assay: as above
[4] = target: hFcgRIIIa (V158) (human) (UniProt P08637); assay: SPR (ProteOn XPR36), anti-poly-histidine IgG surface, antibody as analyte, equilibrium fit, 25 C
[5] = target: cFcgRIIa (cynomolgus monkey); assay: as above
[6] = target: hFcgRIIa (H131) (human) (UniProt P12318); assay: as above
[7] = target: hFcgRIIIa (F158) (human) (UniProt P08637); assay: as above
[8] = target: cFcgRIIb (cynomolgus monkey); assay: as above
[9] = target: cFcgRIIIa (cynomolgus monkey); assay: as above
[10] = target: hFcgRIIa (R131) (human) (UniProt P12318); assay: as above
[11] = target: hFcgRI (human) (UniProt P12314); assay: as above
[12] = target: cynomolgus recombinant neonatal receptor (FcRn) (cynomolgus monkey) (UniProt Q8SPV9); assay: SPR (ProteOn XPR36), antibody captured by protein L, FcRn as analyte, equilibrium fit, pH 7.4, 25 C
[13] = target: human recombinant neonatal receptor (FcRn) (human) (UniProt P55899); assay: as above

human recombinant neonatal receptor (FcRn) (human), sequence (P55899 24-297 limits assumed, chain 1 of 2): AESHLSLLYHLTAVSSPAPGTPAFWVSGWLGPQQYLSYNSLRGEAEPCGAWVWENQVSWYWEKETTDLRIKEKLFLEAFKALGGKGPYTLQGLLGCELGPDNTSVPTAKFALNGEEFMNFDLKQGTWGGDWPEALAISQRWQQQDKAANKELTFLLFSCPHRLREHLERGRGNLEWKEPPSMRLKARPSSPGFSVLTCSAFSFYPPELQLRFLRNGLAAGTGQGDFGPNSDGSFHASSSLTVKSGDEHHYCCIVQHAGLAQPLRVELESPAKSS
human recombinant neonatal receptor (FcRn) (human), sequence (P61769 21-119 limits assumed, chain 2 of 2, further chain): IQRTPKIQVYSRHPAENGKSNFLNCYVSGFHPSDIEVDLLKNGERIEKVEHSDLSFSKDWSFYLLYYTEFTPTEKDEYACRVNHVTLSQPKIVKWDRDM
hFcgRIIa (R131) (human), sequence (P12318 34-217 H167R): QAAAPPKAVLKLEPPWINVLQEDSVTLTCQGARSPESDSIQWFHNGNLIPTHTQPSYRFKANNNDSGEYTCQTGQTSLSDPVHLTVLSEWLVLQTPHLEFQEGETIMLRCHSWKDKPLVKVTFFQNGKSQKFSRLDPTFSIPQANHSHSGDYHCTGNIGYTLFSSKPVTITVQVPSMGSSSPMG
human complement component C1q (human), sequence (P02745 23-245 limits assumed, chain 1 of 3): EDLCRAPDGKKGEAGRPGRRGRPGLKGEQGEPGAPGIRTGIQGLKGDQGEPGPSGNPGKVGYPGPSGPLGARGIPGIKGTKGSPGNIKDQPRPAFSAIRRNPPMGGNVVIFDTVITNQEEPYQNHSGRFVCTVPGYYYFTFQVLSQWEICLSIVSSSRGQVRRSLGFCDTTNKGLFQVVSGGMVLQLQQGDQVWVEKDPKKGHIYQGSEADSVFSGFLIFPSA
human complement component C1q (human), sequence (P02746 28-253 limits assumed, chain 2 of 3, further chain): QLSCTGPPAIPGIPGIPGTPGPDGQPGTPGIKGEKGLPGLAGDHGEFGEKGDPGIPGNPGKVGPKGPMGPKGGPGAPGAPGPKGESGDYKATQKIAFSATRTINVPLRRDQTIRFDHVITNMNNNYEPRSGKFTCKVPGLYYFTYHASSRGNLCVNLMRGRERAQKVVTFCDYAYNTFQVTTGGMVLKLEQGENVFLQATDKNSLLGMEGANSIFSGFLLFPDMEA
human complement component C1q (human), sequence (P02747 29-245 limits assumed, chain 3 of 3, further chain): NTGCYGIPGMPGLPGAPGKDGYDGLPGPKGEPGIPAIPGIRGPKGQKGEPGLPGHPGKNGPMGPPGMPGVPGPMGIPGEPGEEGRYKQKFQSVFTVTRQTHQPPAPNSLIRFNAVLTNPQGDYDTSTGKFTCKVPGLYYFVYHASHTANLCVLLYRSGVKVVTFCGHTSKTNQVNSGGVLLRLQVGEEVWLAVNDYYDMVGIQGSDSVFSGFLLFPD
hFcgRIIa (H131) (human), sequence (P12318 34-217): as the sequence (P12318 34-217 H167R) above, with R134H counted along it
hFcgRIIIa (V158) (human), sequence (P08637 17-208 F176V): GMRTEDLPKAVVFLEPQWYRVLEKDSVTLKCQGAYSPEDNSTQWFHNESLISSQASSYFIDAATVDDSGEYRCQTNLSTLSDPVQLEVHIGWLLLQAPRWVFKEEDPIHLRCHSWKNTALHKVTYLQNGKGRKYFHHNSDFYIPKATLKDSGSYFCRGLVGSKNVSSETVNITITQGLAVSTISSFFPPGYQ
cFcgRIIIa (cynomolgus monkey), sequence (Q8SPW2 17-208): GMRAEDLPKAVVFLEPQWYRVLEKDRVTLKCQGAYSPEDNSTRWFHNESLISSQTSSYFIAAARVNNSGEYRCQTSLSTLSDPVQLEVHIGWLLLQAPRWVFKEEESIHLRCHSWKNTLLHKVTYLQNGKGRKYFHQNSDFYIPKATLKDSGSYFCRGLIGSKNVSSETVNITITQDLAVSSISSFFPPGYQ
hFcgRI (human), sequence (P12314 16-292): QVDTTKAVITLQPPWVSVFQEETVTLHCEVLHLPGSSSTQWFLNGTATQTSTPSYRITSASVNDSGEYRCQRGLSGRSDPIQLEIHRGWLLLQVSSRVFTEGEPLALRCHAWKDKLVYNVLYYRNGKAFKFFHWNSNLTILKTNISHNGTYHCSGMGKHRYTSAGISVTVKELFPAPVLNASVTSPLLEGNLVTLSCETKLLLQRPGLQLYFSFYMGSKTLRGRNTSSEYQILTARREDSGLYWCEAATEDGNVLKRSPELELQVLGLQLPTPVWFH
hFcgRIIIa (F158) (human), sequence (P08637 17-208): as the sequence (P08637 17-208 F176V) above, with V160F counted along it

**Q.** Which Kd [1] does the source give for “Anti-RSV hIgG1 wildtype control (antibody)” here?
**A.** 680 nM

**Q.** And the Kd [2]?
**A.** 146 nM

**Q.** What about the Kd [3] of the same substance?
**A.** 129 nM

**Q.** What about the Kd [4] of the same substance?
**A.** 232 nM

**Q.** And the Kd [5]?
**A.** 2210 nM

**Q.** And the Kd [6]?
**A.** 884 nM

**Q.** What about the Kd [7] of the same substance?
**A.** 735 nM

**Q.** What about the Kd [8] of the same substance?
**A.** 1450 nM

**Q.** What about the Kd [9] of the same substance?
**A.** 141 nM

**Q.** What about the Kd [10] of the same substance?
**A.** 528 nM

**Q.** What about the Kd [11] of the same substance?
**A.** 28.3 nM

**Q.** Human IgG1 YTE control (antibody) was tested. Which Kd [12] did it give?
**A.** 2760 nM

**Q.** What about the Kd [13] of the same substance?
**A.** 4.33 µM

**Q.** And the Kd [2]?
**A.** 39.3 nM

**Q.** What about the Kd [3] of the same substance?
**A.** 30.4 nM
